Measured values taken from article PMC9841416.

molecular target: NTH-RNase E D346N D346N (Escherichia coli (K12, P21513-1 in alignment)) (UniProt P21513); assay: EMSA; conditions: 25 mM bis-Tris propane pH 8.3, 100 mM KCl, 15 mM CaCl2, 0.1% (v/v) Triton X-100, 1 mM DTT, 20% (v/v) glycerol, 37 C 20 min; 1% agarose gel in 1x TBE

Substance	Kd
glnW-metU segment	27 nM
metU-tRNA with 5' and 3' single-stranded regions	19 nM
glnW-tRNA (no flanking single-stranded regions)	56 nM
